Experimental data as given in the RNAGym collection of RNA variant scans (doi:10.1073/pnas.2313332121).

B1: TPR t1 (parent)
chain: GACCAAUCUGCCCUCAGAGCUCGAGAACAUCUUCGGAUGCAGAGGAGGCAGGCUUCGGUGGCGCGAUAGCGCCAACGUCCUCAACCUCCAAUGCAUCCCACCACAUGAUGAUGCCUGAAGAGCCUUGGUUUUUUG

Variants of: B1
Assay: polymerase ribozyme fitness, log enrichment relative to wild type (log ratio); higher = more active; in vitro selection for triplet polymerase activity
In short: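 Genotype fitness is the logarithm of its enrichment divided by wild-type enrichment, using inverse-variance-weighted averages of replicates. That logarithm is base 2. Enrichment was measured by Illumina sequencing of input and output libraries from one triplicate in vitro selection round, with frozen incubation at −7 °C, on PCR-built, transcribed mutant libraries of each subunit of a heterodimeric triplet polymerase ribozyme, retaining genotypes with ≥10 input reads and ≥1 read per output.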

Variant	polymerase ribozyme fitness (log ratio)
U7G G71C	-0.641
U7C U14G G48U C70G	-5.7
C8A A100C	-0.0614
C8G C34U G39U G58A A84U	-5.29
C8G C76A C82A C114G	-4.44
U7C C11G C62A U96G	-1.18
C8A G44U G57A C64U	-0.879
C8A G51C C53A C88A C114A	-5.74
C8A U21A A84U	-0.224
C8G G35A	-2.23
C8G C13G	0.865
C8G C13A	0.587
U7G G71U C97G G120U U132C	-3.27
C8G G44C A84C C115U	-1.3
U7C U112C G113U G135A	-3.06
C8A C11G C13U C20A C49G	-3.3
C8G A24G C72G C97G C115G	-4.32
C8G C53U C89A	-1.28
C8A C115A	0.286
U7G C20U	-1.37
C8G C34G G39C G120U	-4.99
C8A C72A G93C	0.271
U7G A27G G48C C86G	-0.81
C8A A27G C56G U59G G113U	-4.68

Variant	polymerase ribozyme fitness (log ratio)
C8A U59C A105G C123A	-2.08
U7C C72G A84C	-0.576
C8G C40G U54C C99U C104U	-2.91
C8G C85A A121U	1.35
C8A A18C U38G G61C C94U G110U C123U	-7.38
C8A C115A U125G	1.5
C8A C13G C80U	-0.499
U7G A18U	-0.713
C8A C40A A43C U87G	-2.23
U7G C22G A24G G48U	-5.74
U7G C73U U78A	0.634
C8A C56U	0.138
C8G C11U C70A C94U	-1.28
C8A G120U	0.91
C8G A27U C53U A111C C114G	-6.88
C8A U59A	-0.964
C8A A26U C94U C124G U125G G127U	-0.974
U7C G17A G63U A121C	-1.33
C8G C12A C20U A37C U92A G113U	-1.85
C8A A84G	0.231
C8A C11G C13U C20A G36A U78C	-3.05
C8A C11A C22A U32G U33C C34A C40G C72U A100U C115U	-6.9
C8G A18U G52U A90C	-1.7
C8G C56A G77A	-0.27

Variant	polymerase ribozyme fitness (log ratio)
C8G C40A C53G G63U U109G	-7.06
C8G C79U G110C	-4.01
U7C G39A C124U	0.776
C8A A29U G63A C88U A91U C123U	-3.81
C8A G45C	0.366
C8A C70U A91C U116A	-2.96
U7C C11U G69C	-1
C8G A18C G36U C72A U78G C82A C85G	-5.25
U7C U59A A83G U96C	-1.25
C8G C12A C28G A29G G48U A68U C114A U125G	-6.52
C8A C49A G61A	0.627
U7G C104A C123G G128C	-3.67
U7G C13G G57A	-0.156
C8G C20U G61A C101U	-0.517
C8A U9G	-0.0103
U7G G65U	-5.58
C8A A43C C70G	-6.43
C8A C40U G61U U78A C80G A100C	-6.33
C8G C15A G51U C76U C98U	-4.46
U7C C70U C101G	-2.79
U7G G77U	0.185
U7G U9A A27U C72U U87A U126A	-3.36
C8A C56A C70A C98U C123G	-1.64
U7C C12A	-0.242

Variant	polymerase ribozyme fitness (log ratio)
U7C C12G	0.687
U7C G45U G60A C82G C85G G117A	-3.81
U7G A84C U112C A119U	1.28
U7C G47A G48A A90C U112C	-1.65
C8A A111C	0.0486
C8A A111U	-1.79
C8A C12G U14C G77C C101A	-1.39
C8A C70A	-0.98
C8A C11A C82A G93A	-0.542
C8G C40A C70G C114A	-5.85
C8G C70G	-1.84
U7G C80A C124A	-1.1
U7G C8U A29U C40A G48A	-2.66
C8A C15U G47C G63A C98A C114U G117A U129G	-7.35
U7G U55A G58A G63U C98A A105U G120A	-5.94
C8G C62A C94A G120U	0.318
C8A A100U U116G U133A G135U	-0.711
U7C C11U C73U G93U	-1.53
U7G C56A G57A G93U	-1.03
C8A C124A	2.16
C8G C22G G36A C85U U112A	-2.18
C8G C20U A46U G52C	-3.42
U7C G44A	-0.534
C8G G45A G52U C53A C98U G110A G120C U129A	-6.11

Variant	polymerase ribozyme fitness (log ratio)
C8G C72G C82A C102U	-1.73
U7C G47A G69U C72A C102G	-4.77
U7G G47A C56A C70G	-5.1
C8G A108G	-0.714
C8G C22A C53U C89A C114U G117A G135A	-3.7
C8G C40G G71U U81G C82U	-0.811
U7G C98U	-0.713
U7C U9G A26G	-1.4
C8A A18C C22G	-4.25
C8G G45C G48A U54G	0.0312
C8G C79G C80A	-5.06
C8A G36U C76A U131C	-1.09
U7G C13A C49G U96C	-0.772
U7C G17C C115A	0.0409
C8G C13U G47C	-0.248
C8G G47U	0.0211
C8G A75G C88A C124U	1.57
C8A C11G C64A A103C A119U G120A	-6.83
C8G C12A G39A G61U A111U U130A	-2.24
U7C C56U C72U U130G	-0.275
C8A A41U G69U C86A	-0.0176
C8G C62U U87A U112G G113U C123U G127A	-4.35
C8G A27U A46C G69U U78A C114U	-4.5
C8G A27U C89G	-4.7

Variant	polymerase ribozyme fitness (log ratio)
U7G A46U G93U	-2.2
C8A C49A C64U C86U G93U C94U C123A	-0.145
U7G U32A G39U G127C U130C	-5.02
C8G G10A	0.258
C8G C102A	-1.02
C8A U9G C62A	-0.773
C8G C40G U81G C82U	-0.759
U7G A50U C64U G117C	-4.92
C8G C89A G117A U129A	-2.73
C8G G36A A121C U131G	1.28
C8A A18C G60U	-1.62
C8A A46U	-1.5
U7C C72A A83G	-0.327
C8G G44A C101U	-0.462
U7G C8U A90U A121C	1.04
C8A A16U G120U U130G	1.06
U7G G51C	-2.99
C8A G42U U96A A100U	-2.37
U7C C12U C22U G63A	-4.58
C8G G10A C12U G35A A66C C72G A121U G122C U130C	-7.42
C8A A18C U21G A68G	-6.09
C8A U54G A111U U116G A119U U130G	-7.62
C8G G45A C56U C72U C94A C101A	-2.54
C8A U14A G110A	-1.09

Variant	polymerase ribozyme fitness (log ratio)
C8A U133G	0.0303
U7C C34U C49A A50C	-5.35
C8G G39A	-0.708
C8A G117U A119U C123U	-0.478
C8A C12U A46C G93A C115A	0.651
C8G C56G C89A A90C G107C G117C	-5.56
C8A C12A G61C G69U G120A U129G	-1.45
U7G C88U A119G	1.51
C8A C11G A103C A119U G120A	-3.31
C8A G69U	0.656
C8G C53G C56U G93C	0.798
U7G U78C	0.451
C8G C73A G120C	2.29
C8A C79G C85G	-2.78
C8G C40A U78C	-0.518
C8A U38G A43C G61C C123A	-4.73
U7G C22U A68C G93U C115U A121G	-5.51
U7C C28G G61U	-3.14
C8A C62U A118C	-2.69
U7G G45C G47A U59C	-1.08
C8A G44U G52A	-0.478
C8G A91U	-1.17
U7G U54A C102A U112A U131A	-0.106
